Assay [1] deals with HLA-A*69:01. Description: IEDB peptide-MHC binding, purified MHC/direct/fluorescence; filed as Kd, often an IC50 or EC50 that approximates it; ≥ and ≤ were set here for values at or beyond the usual limits of such assays.
Assay [2] deals with HLA-A*03:01. The description is as above.
For a further assay, the target named is HLA-B*58:01. The description is as above.
The target of assay [3] is HLA-A*24:02. Described as above.
For a further assay, the target named is HLA-B*44:02. The description is as above.
Another assay addresses HLA-B*08:01. Described as above. The following applies: source organism: Influenza A virus (A/chicken/Hunan/fg/2004(H5N1)).
The target in assay [4] is HLA-B*15:01. Described as above.
Another assay addresses HLA-B*27:05. The description is as above.
The target in the next assay is HLA-B*40:01. Described as above.
Assay [5] concerns the target HLA-A*02:01. Described as above.
A further assay concerns the target HLA-A*31:01. Described as above.
The next assay concerns the target HLA-B*07:02. The description is as above.
For assay [6], the target named is HLA-A*11:01. Described as above.
Assay [7] deals with HLA-A*26:01. The assay is described as above.
Assay [8] addresses HLA-B*15:17. Described as above. The following applies: source organism: Yellow fever virus.
Assay [9] has as its target HLA-B*57:01. Described as above. Conditions: source organism: Yellow fever virus.
The target of a further assay is HLA-B*08:02. The assay is described as above. Conditions: source organism: Vibrio parahaemolyticus AQ3810.
The target in assay [10] is HLA-A*03:01. Description: IEDB peptide-MHC binding, purified MHC/competitive/fluorescence; ≥ and ≤ were set here for values at or beyond the usual limits of such assays.
For assay [11], the target named is HLA-A*02:01. Described as above.
Assay [12] addresses HLA-A*11:01. The description is as above.
The target of assay [13] is HLA-A*24:02. The assay is described as above.
The target of another assay is HLA-A*01:01. Description: IEDB peptide-MHC binding, purified MHC/direct/fluorescence; filed as Kd, often an IC50 or EC50 that approximates it; ≥ and ≤ were set here for values at or beyond the usual limits of such assays.
Assay [14] addresses HLA-A*69:01. Briefly: IEDB peptide-MHC binding, purified MHC/competitive/fluorescence; filed as Kd, often an IC50 or EC50 that approximates it; ≥ and ≤ were set here for values at or beyond the usual limits of such assays. Conditions: source organism: Homo sapiens.
A further assay concerns the target HLA-B*27:03. The description is as above. The following applies: source organism: Homo sapiens.
A further assay has as its target HLA-B*51:01. The description is as above. The following applies: source organism: Homo sapiens.
In assay [15] the target is HLA-B*15:01. The description is as above. Conditions: source organism: Homo sapiens.
For assay [16], the target named is HLA-A*02:01. Described as above. The following applies: source organism: Homo sapiens.
In another assay the target is HLA-B*39:01. Described as above. Conditions: source organism: Homo sapiens.
For assay [17], the target named is HLA-B*57:01. The description is as above. Conditions: source organism: Homo sapiens.
Assay [18] has as its target HLA-B*46:01. Described as above. Conditions: source organism: Homo sapiens.
Assay [19] addresses HLA-A*26:01. The assay is described as above. The following applies: source organism: Homo sapiens.
Assay [20] has as its target HLA-B*18:01. Briefly: IEDB peptide-MHC binding, purified MHC/direct/fluorescence; filed as Kd, often an IC50 or EC50 that approximates it; ≥ and ≤ were set here for values at or beyond the usual limits of such assays.
Assay [21] deals with HLA-B*46:01. The assay is described as above.
The target in assay [22] is HLA-B*18:01. Description: IEDB peptide-MHC binding, purified MHC/competitive/fluorescence; filed as Kd, often an IC50 or EC50 that approximates it; ≥ and ≤ were set here for values at or beyond the usual limits of such assays. Conditions: source organism: Homo sapiens.
The target of assay [23] is HLA-B*15:17. The assay is described as above. The following applies: source organism: Homo sapiens.
[24] abbreviates: source organism: Influenza A virus (A/chicken/Hunan/fg/2004(H5N1)).
Where [25] appears, read: source organism: Sudan ebolavirus.
Setting [26] is: source organism: Zaire ebolavirus.
The mark [27] stands for this setting: source organism: Vaccinia virus Copenhagen.
[28] abbreviates: source organism: Escherichia coli O157:H7.
The mark [29] stands for this setting: source organism: Yersinia pestis.

For DTVNRTHQY, the Kd with HLA-A*69:01 [1] (setting [24]), with HLA-A*03:01 [2] (setting [24]), with HLA-B*58:01 (setting [24]), with HLA-A*24:02 [3] (setting [24]), with HLA-B*44:02 (setting [24]) and in the assay with HLA-B*08:01 was at least 20 µM throughout. For the same sequence, the Kd with HLA-B*15:01 [4] (setting [24]), with HLA-B*27:05 (setting [24]), with HLA-B*40:01 (setting [24]), with HLA-A*02:01 [5] (setting [24]), with HLA-A*31:01 (setting [24]) and in the assay with HLA-B*07:02 (setting [24]) was at least 20 µM each time. For the same sequence, the figures for the Kd in the assay with HLA-A*11:01 [6] (setting [24]) and with HLA-A*26:01 [7] (setting [24]) were at least 20 µM and 0.0055 µM, respectively.

Take ESWIVDRQW: the Kd with HLA-B*15:17 [8] came out at 0.135 µM; with HLA-B*57:01 [9], 0.0195 µM.

FLRKHNEGL: the Kd with HLA-B*08:02 is 1.75 µM.

For GILGSLGLR, the values for the IC50 with HLA-A*03:01 [10] (setting [25]), with HLA-A*02:01 [11] (setting [25]) and with HLA-A*11:01 [12] (setting [25]) were 15.2 µM, 3.62 µM and 3.84 µM, respectively.

GLITGGRRT: the IC50 in the assay with HLA-A*03:01 [10] (setting [26]) is at least 141 µM; with HLA-A*24:02 [13] (setting [26]), 19 µM; in the assay with HLA-A*02:01 [11] (setting [26]), 14.7 µM; with HLA-A*11:01 [12] (setting [26]) it was at least 99.4 µM.

GTEYRLTLY: the Kd in the assay with HLA-A*01:01 (source organism: Canis lupus familiaris) was 0.0008 µM; in the assay with HLA-A*69:01 [14] it was at least 20 µM; in the assay with HLA-B*27:03, at least 20 µM; in the assay with HLA-B*51:01 it was at least 20 µM; with HLA-B*15:01 [15], at least 20 µM; with HLA-A*02:01 [16] it was at least 20 µM. The Kd with HLA-B*39:01, in the assay with HLA-B*57:01 [17], with HLA-B*46:01 [18] and with HLA-A*26:01 [19] was at least 20 µM in each case.

Take IITPIVFYR: the IC50 was 1.49 µM with HLA-A*03:01 [10] (setting [27]), 20.3 µM in the assay with HLA-A*24:02 [13] (setting [27]), at least 132 µM with HLA-A*02:01 [11] (setting [27]) and 0.263 µM in the assay with HLA-A*11:01 [12] (setting [27]).

ISNSVAQAR: the IC50 was at least 110 µM with HLA-A*03:01 [10] (setting [26]) and 49.2 µM with HLA-A*11:01 [12] (setting [26]).

KILTAGLSV: the IC50 in the assay with HLA-A*03:01 [10] (setting [26]) was 36.3 µM; with HLA-A*02:01 [11] (setting [26]), 2.56 µM; with HLA-A*11:01 [12] (setting [26]), at least 159 µM.

As for KPKLKVATL, the Kd with HLA-A*69:01 [1] (setting [28]), with HLA-A*03:01 [2] (setting [28]), with HLA-B*58:01 (setting [28]), with HLA-B*18:01 [20] (setting [28]), in the assay with HLA-A*24:02 [3] (setting [28]) and with HLA-B*44:02 (setting [28]) was at least 20 µM each time. Further, the equilibrium dissociation constant (Kd) in the assay with HLA-B*15:01 [4] (setting [28]) was at least 20 µM; in the assay with HLA-B*27:05 (setting [28]), at least 20 µM; with HLA-B*40:01 (setting [28]), at least 20 µM; in the assay with HLA-A*02:01 [5] (setting [28]), at least 20 µM; in the assay with HLA-A*01:01 (setting [28]), at least 20 µM; with HLA-B*07:02 (setting [28]), 0.0674 µM. In the assay with HLA-A*11:01 [6] (setting [28]), this sequence gave a Kd of at least 20 µM.

On to PLARTAKVK, for which the IC50 with HLA-A*03:01 [10] (setting [26]) was found to be 4.15 µM; with HLA-A*11:01 [12] (setting [26]) it was 48.4 µM.

For the sequence PPDGVRGFP, the IC50 in the assay with HLA-A*03:01 [10] (setting [25]) was found to be 67.1 µM; with HLA-A*11:01 [12] (setting [25]), 63.2 µM.

As for QMRVRYYGL, the Kd in the assay with HLA-A*69:01 [1] (setting [28]), with HLA-A*03:01 [2] (setting [28]), with HLA-B*58:01 (setting [28]), with HLA-B*18:01 [20] (setting [28]), with HLA-A*24:02 [3] (setting [28]) and with HLA-B*15:01 [4] (setting [28]) was at least 20 µM each time. Besides, the Kd with HLA-B*27:05 (setting [28]), with HLA-B*40:01 (setting [28]), with HLA-A*02:01 [5] (setting [28]), with HLA-A*01:01 (setting [28]), in the assay with HLA-B*46:01 [21] (setting [28]) and with HLA-B*07:02 (setting [28]) was at least 20 µM throughout. Further, the Kd with HLA-A*11:01 [6] (setting [28]) was at least 20 µM.

In the case of RKAIDFLLR, the IC50 in the assay with HLA-A*03:01 [10] (setting [25]) is at least 212 µM.

Take RTDNGGWAH: the equilibrium dissociation constant (Kd) in the assay with HLA-A*01:01 (source organism: Homo sapiens) was 0.0631 µM; with HLA-A*69:01 [14], at least 20 µM; with HLA-B*18:01 [22], at least 20 µM; in the assay with HLA-B*27:03, at least 20 µM; with HLA-B*51:01 it was at least 20 µM; with HLA-B*15:01 [15] it was at least 20 µM. Further, the Kd in the assay with HLA-A*02:01 [16], with HLA-B*15:17 [23], in the assay with HLA-B*39:01, in the assay with HLA-B*57:01 [17], with HLA-B*46:01 [18] and in the assay with HLA-A*26:01 [19] was at least 20 µM in each case.

Regarding RVFNGDDVK, the Kd is at least 20 µM with HLA-A*69:01 [1] (setting [29]); 1.39 µM with HLA-A*03:01 [2] (setting [29]); at least 20 µM with HLA-B*58:01 (setting [29]); at least 20 µM with HLA-B*18:01 [20] (setting [29]); at least 20 µM with HLA-A*24:02 [3] (setting [29]); at least 20 µM with HLA-B*44:02 (setting [29]). The Kd in the assay with HLA-B*15:01 [4] (setting [29]) is at least 20 µM; in the assay with HLA-B*27:05 (setting [29]) it was at least 20 µM; in the assay with HLA-B*40:01 (setting [29]), at least 20 µM; with HLA-A*02:01 [5] (setting [29]) it was at least 20 µM; with HLA-A*31:01 (setting [29]) it was 4.2 µM; with HLA-A*01:01 (setting [29]), at least 20 µM. The Kd was at least 20 µM in the assay with HLA-B*46:01 [21] (setting [29]), at least 20 µM with HLA-B*07:02 (setting [29]), 0.251 µM in the assay with HLA-A*11:01 [6] (setting [29]) and at least 20 µM in the assay with HLA-A*26:01 [7] (source organism: Yersinia pestis CA88-4125).

For the origin of these results see the Immune Epitope Database (IEDB).
